{"source": "the supplement of paper PMC10567573", "parents": {"B1": {"name": "ATL3 (parent)", "chain": "HFKKTKKMGGKDFSFRYQQELEEE"}}, "data": [{"variants_of": "B1", "test": "protein stability index of a GFP-peptide fusion (GPS, HEK-293T) (PSI 1-6); higher = more stable", "conditions": "c terminus: a fixed tail appended", "values": [{"variant": "HFKKTKKMGGKDCSFRYQQELEEE", "protein stability index": 4.74}, {"variant": "HFKKTKKMGGKDQSFRYQQELEEE", "protein stability index": 5.21}, {"variant": "HFKKTKKMGGKDGSFRYQQELEEE", "protein stability index": 5.01}, {"variant": "HFKKTKKMGGKDLSFRYQQELEEE", "protein stability index": 4.45}, {"variant": "HFKKTKKMGGKDDSFRYQQELEEE", "protein stability index": 5.57}, {"variant": "HFKKTKKMGGKDSSFRYQQELEEE", "protein stability index": 4.83}, {"variant": "HFKKTKKMGGKDASFRYQQELEEE", "protein stability index": 5.27}, {"variant": "HFKKTKKFGGKDFSFRYQQELEEE", "protein stability index": 1.68}, {"variant": "HFKKTKKKGGKDFSFRYQQELEEE", "protein stability index": 3.19}, {"variant": "HFKKTKKNGGKDFSFRYQQELEEE", "protein stability index": 2.4}, {"variant": "HFKKTKKLGGKDFSFRYQQELEEE", "protein stability index": 1.48}, {"variant": "HFKKTKKCGGKDFSFRYQQELEEE", "protein stability index": 2.24}, {"variant": "HFKKTKKPGGKDFSFRYQQELEEE", "protein stability index": 1.92}, {"variant": "HFKKTKKEGGKDFSFRYQQELEEE", "protein stability index": 2.72}, {"variant": "HFKKTKKSGGKDFSFRYQQELEEE", "protein stability index": 2.77}, {"variant": "HFKKTKKAGGKDFSFRYQQELEEE", "protein stability index": 2.39}, {"variant": "HFKKTKKIGGKDFSFRYQQELEEE", "protein stability index": 1.96}, {"variant": "HFKKTKKWGGKDFSFRYQQELEEE", "protein stability index": 2.35}, {"variant": "HFKKTKKGGGKDFSFRYQQELEEE", "protein stability index": 3.01}, {"variant": "HFKKTKKYGGKDFSFRYQQELEEE", "protein stability index": 1.99}, {"variant": "HFKKTKKVGGKDFSFRYQQELEEE", "protein stability index": 1.64}, {"variant": "HFKKTKKMGGKDFSFRYQQELEEI", "protein stability index": 2.16}, {"variant": "HFKKTKKMGGKDFSFRYQQELEED", "protein stability index": 2.28}, {"variant": "HFKKTKKMGGKDFSFRYQQELEER", "protein stability index": 3.35}, {"variant": "HFKKTKKMGGKDFSFRYQQELEEC", "protein stability index": 2.74}, {"variant": "HFKKTKKMGGKDFSFRYQQELEEA", "protein stability index": 2.68}, {"variant": "HFKKTKKMGGKDFSFRYQQELEEQ", "protein stability index": 2.08}, {"variant": "HFKKTKKMGGKDFSFRYQQELEEP", "protein stability index": 3.69}, {"variant": "HFKKTKKMGGKDFSFRYQQELEEV", "protein stability index": 3.28}, {"variant": "HFKKTKKMGGKDFSFRYQQELEEY", "protein stability index": 1.54}, {"variant": "HFKKTKKMGGKDFSFRYQQELEEM", "protein stability index": 1.81}, {"variant": "HFKKTKKMGGKDFSFRYQQELEEF", "protein stability index": 2.01}, {"variant": "HFKKTKKMGGKDFSFRYQQELEEN", "protein stability index": 3.49}, {"variant": "HFKKTKKMGGKDFSFRYKQELEEE", "protein stability index": 2.09}, {"variant": "HFKKTKKMGGKDFSFRYRQELEEE", "protein stability index": 1.44}, {"variant": "HFKKTKKMGGKDFSFRYGQELEEE", "protein stability index": 1.87}, {"variant": "HFKKTKKMGGKDFSFRYLQELEEE", "protein stability index": 2.64}, {"variant": "HFKKTKKMGGKDFSFRYIQELEEE", "protein stability index": 1.85}, {"variant": "HFKKTKKMGGKDFSFRYDQELEEE", "protein stability index": 4.65}, {"variant": "HFKKTKKMGGKDFSFRYNQELEEE", "protein stability index": 2.54}, {"variant": "HFKKTKKMGGKDFSFRYEQELEEE", "protein stability index": 2.73}, {"variant": "HFKKTKKMGGKDFSFRYTQELEEE", "protein stability index": 2.27}, {"variant": "VFKKTKKMGGKDFSFRYQQELEEE", "protein stability index": 2.26}, {"variant": "KFKKTKKMGGKDFSFRYQQELEEE", "protein stability index": 3.03}, {"variant": "IFKKTKKMGGKDFSFRYQQELEEE", "protein stability index": 1.36}, {"variant": "AFKKTKKMGGKDFSFRYQQELEEE", "protein stability index": 2.35}, {"variant": "HFKKTKKMGGKDFSFRYQQEKEEE", "protein stability index": 3.3}, {"variant": "HFKKTKKMGGKDFSFRYQQEYEEE", "protein stability index": 1.4}, {"variant": "HFKKTKKMGGKDFSFRYQQECEEE", "protein stability index": 2.1}, {"variant": "HFKKTKKMGGKDFSFRYQQEREEE", "protein stability index": 2.46}, {"variant": "HFKKTKKMGGKDFSFRYQQEMEEE", "protein stability index": 1.53}, {"variant": "HFKKTKKMGGKDFSFRYQQEQEEE", "protein stability index": 2.4}, {"variant": "HFKKTKKMGGKDFSFRYQQEDEEE", "protein stability index": 4.71}, {"variant": "HFKKTKKMGGKDFSFRYQQENEEE", "protein stability index": 4.27}, {"variant": "HFKKTKKMGGKDFSFTYQQELEEE", "protein stability index": 4.47}, {"variant": "HFKKTKKMGGKDFSFGYQQELEEE", "protein stability index": 4.22}, {"variant": "HFKKTKKMGGKDFSFHYQQELEEE", "protein stability index": 3.09}, {"variant": "HFKKTKKMGGKDFSFCYQQELEEE", "protein stability index": 3.28}, {"variant": "HFKKTKKMGGKDFSFVYQQELEEE", "protein stability index": 2.54}, {"variant": "HFKKTKKMGGKDFSFPYQQELEEE", "protein stability index": 4.96}, {"variant": "HFKKTKKMDGKDFSFRYQQELEEE", "protein stability index": 2.23}, {"variant": "HFKKTKKMHGKDFSFRYQQELEEE", "protein stability index": 1.84}, {"variant": "HFKKTKKMKGKDFSFRYQQELEEE", "protein stability index": 2.7}, {"variant": "HFKKTKKMFGKDFSFRYQQELEEE", "protein stability index": 2.64}, {"variant": "HFKKTKKMPGKDFSFRYQQELEEE", "protein stability index": 2.05}, {"variant": "HMKKTKKMGGKDFSFRYQQELEEE", "protein stability index": 2.76}, {"variant": "HIKKTKKMGGKDFSFRYQQELEEE", "protein stability index": 2.65}, {"variant": "HDKKTKKMGGKDFSFRYQQELEEE", "protein stability index": 2.65}, {"variant": "HSKKTKKMGGKDFSFRYQQELEEE", "protein stability index": 1.91}, {"variant": "HFPKTKKMGGKDFSFRYQQELEEE", "protein stability index": 1.9}, {"variant": "HFDKTKKMGGKDFSFRYQQELEEE", "protein stability index": 2.34}, {"variant": "HFLKTKKMGGKDFSFRYQQELEEE", "protein stability index": 1.98}, {"variant": "HFMKTKKMGGKDFSFRYQQELEEE", "protein stability index": 2.71}, {"variant": "HFFKTKKMGGKDFSFRYQQELEEE", "protein stability index": 2.41}, {"variant": "HFIKTKKMGGKDFSFRYQQELEEE", "protein stability index": 1.89}, {"variant": "HFVKTKKMGGKDFSFRYQQELEEE", "protein stability index": 2.4}, {"variant": "HFRKTKKMGGKDFSFRYQQELEEE", "protein stability index": 2.42}, {"variant": "HFQKTKKMGGKDFSFRYQQELEEE", "protein stability index": 3.21}, {"variant": "HFKKCKKMGGKDFSFRYQQELEEE", "protein stability index": 2.37}, {"variant": "HFKKIKKMGGKDFSFRYQQELEEE", "protein stability index": 2.17}, {"variant": "HFKKSKKMGGKDFSFRYQQELEEE", "protein stability index": 2.26}, {"variant": "HFKKQKKMGGKDFSFRYQQELEEE", "protein stability index": 1.8}, {"variant": "HFKKVKKMGGKDFSFRYQQELEEE", "protein stability index": 2.75}, {"variant": "HFKKYKKMGGKDFSFRYQQELEEE", "protein stability index": 1.75}, {"variant": "HFKKAKKMGGKDFSFRYQQELEEE", "protein stability index": 1.5}, {"variant": "HFKKMKKMGGKDFSFRYQQELEEE", "protein stability index": 2.57}, {"variant": "HFKKGKKMGGKDFSFRYQQELEEE", "protein stability index": 1.35}, {"variant": "HFKKFKKMGGKDFSFRYQQELEEE", "protein stability index": 2.44}, {"variant": "HFKKKKKMGGKDFSFRYQQELEEE", "protein stability index": 2.22}, {"variant": "HFKKTKKMGGKAFSFRYQQELEEE", "protein stability index": 1.88}, {"variant": "HFKKTKKMGGKMFSFRYQQELEEE", "protein stability index": 1.46}, {"variant": "HFKKTKKMGGKLFSFRYQQELEEE", "protein stability index": 2.67}, {"variant": "HFKKTKKMGGKSFSFRYQQELEEE", "protein stability index": 2.65}, {"variant": "HFKKTKKMGGKNFSFRYQQELEEE", "protein stability index": 2.1}]}]}
